Consider two molecules from patent US20240343811A1 (SHANDONG SIMCERE BIOPHARMACUTICAL, published 2024).

Where two headings read alike, the source gives them in different places.

In general, Kd refers to the concentration at which binding is half-saturated. A word on the koff: it is the rate constant with which the complex falls apart. Low readings indicate a long-lived complex, high ones a short-lived complex. Usually kon stands for the rate constant with which the complex forms. Higher therefore signals fast association. By EC50 is commonly meant the midpoint of the concentration-response curve.

In assay [1] the target is T1, Human CD16a (158F)-his (human).
T1 construct: entry holds ECD, AVI tag, linker and His tag
T1 sequence (chain, as listed by the source limits assumed): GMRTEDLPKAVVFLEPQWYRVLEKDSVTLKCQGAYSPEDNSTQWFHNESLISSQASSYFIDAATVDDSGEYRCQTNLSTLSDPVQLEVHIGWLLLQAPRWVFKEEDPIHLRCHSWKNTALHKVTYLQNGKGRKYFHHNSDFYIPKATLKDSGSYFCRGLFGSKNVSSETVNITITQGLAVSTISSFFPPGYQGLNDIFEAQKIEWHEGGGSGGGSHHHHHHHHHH
Put plainly: SPR (Biacore), antibody captured on Protein A. As to the method: (§1) A sample buffer and a running buffer were HBS-EP+ (10 mM HEPES, 150 mM NaCl, 3 mM EDTA and 0.05% surfactant P20) (GE Healthcare; BR-1006-69). The flow-through cell was set to 25° C. The sample block was set to 16° C. Both were pretreated with the running buffer. In each cycle, an antibody to be detected was first captured with a Protein A chip, and then a single concentration of CD16 antigen protein was injected. The binding and dissociation processes of the antibody and the antigen protein were recorded, and finally Glycine pH 1.5 (GE Healthcare; BR-1003-54) was used to complete chip regeneration. Binding was measured by injecting different concentrations of recombinant human CD16-ECD his proteins in a solution for 240 s with a flow rate of 30 μL/min, wherein a total of 5 concentrations were prepared by using 200 nM as a starting concentration (see the detailed results for the actual concentration in the test) and performing a 1:1 dilution. The dissociation phase was monitored for up to 600 s and was triggered by switching from a sample solution to a running buffer. The surface was regenerated by washing with a 10 mM glycine solution (pH 1.5) for 30 s at a flow rate of 30 μL/min. Bulk refractive index difference was corrected by subtracting the response obtained from the goat anti-human Fc surface. Blank injection was also subtracted (=double reference). For calculation of apparent KD and other kinetic parameters, Langmuir 1:1 model was used.

In assay [2] the target is T2, human CD16a (158V), full length, on cells (human, UniProt P08637 17-254). As to the kind of experiment: cell-based or functional assay.
T2 sequence (P08637 17-254 F176V limits assumed): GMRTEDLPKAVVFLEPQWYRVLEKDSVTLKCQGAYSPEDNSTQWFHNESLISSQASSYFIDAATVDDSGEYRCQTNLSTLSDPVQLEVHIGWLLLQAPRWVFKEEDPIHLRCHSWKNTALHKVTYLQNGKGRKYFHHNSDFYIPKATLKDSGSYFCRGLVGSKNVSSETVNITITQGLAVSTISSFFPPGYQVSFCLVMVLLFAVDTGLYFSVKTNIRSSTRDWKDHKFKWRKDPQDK
Assay [3] deals with T2, human CD16a (158V), full length, on …. Put plainly: FACS on FlpinCHO cells. As to the method: (§2) The required cells were scale-up cultured in a T-75 cell culture flask to the logarithmic growth phase. The medium was aspirated, and the cells were washed twice with a PBS buffer and then digested with trypsin. After the digestion was terminated, the cells were washed twice with the PBS buffer. The cells were counted, and then the cell pellet was resuspended with a [PBS+2% (w/w) BSA] blocking solution to 2×10⁶ cells/ml, and added to a 96-well FACS reaction plate at 50 μl/well. […] 50 μl/well of the antibody to be detected was added at different concentrations, and incubated on ice for 1 hour. […] The mixture was centrifuged and washed 5 times with PBS, and FACS (FACS Canto II, purchased from BD Company) was used for detection and result analysis. Data analysis was performed by software (CellQuest) to obtain the mean fluorescence intensity (MFI) of the cells. Then, software (GraphPad Prism8) was used for analysis, data fitting and EC50 value calculation.
(§3) The binding of a humanized antibody to FlpinCHO-human CD16a cells was detected according to the method of Example 3.1.

For assay [4], the target named is T3, human CD16a (158F), full length, on FlpinCHO cells (human, UniProt P08637 17-254). As to the kind of experiment: FACS on FlpinCHO cells. As to the method: as §2, §3
T3 sequence (P08637 17-254 limits assumed): as the sequence (P08637 17-254 F176V limits assumed) above, with V160F counted along it
Assay [5] has as its target T4, human CD16b (NA1), full length, on FlpinCHO cells (human, UniProt O75015 17-200).
T4 construct: also called FlpinCHO-human CD16b (NA1)
T4 chain: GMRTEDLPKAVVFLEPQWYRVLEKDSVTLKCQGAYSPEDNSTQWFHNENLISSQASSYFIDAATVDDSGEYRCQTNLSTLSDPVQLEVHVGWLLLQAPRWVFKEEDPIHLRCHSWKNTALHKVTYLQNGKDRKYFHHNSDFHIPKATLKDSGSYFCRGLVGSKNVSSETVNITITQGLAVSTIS
Put plainly: FACS on FlpinCHO cells. As to the method: as §2
(§4) The binding of an antibody to be detected to FlpinCHO-human CD16b cells was detected according to the method of Example 3.1.

The target of assay [6] is T5, human CD16b (NA2), full length, on FlpinCHO cells (human, UniProt O75015 17-200).
T5 construct: also called FlpinCHO-human CD16b (NA2)
T5 chain: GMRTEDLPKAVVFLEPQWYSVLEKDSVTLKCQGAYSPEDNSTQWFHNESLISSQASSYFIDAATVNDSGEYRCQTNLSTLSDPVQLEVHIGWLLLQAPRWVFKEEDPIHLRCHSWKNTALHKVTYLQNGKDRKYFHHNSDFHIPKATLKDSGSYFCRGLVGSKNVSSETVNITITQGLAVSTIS
As to the kind of experiment: FACS on FlpinCHO cells. As to the method:
as §2, §4

Assay [7] addresses T4, human CD16b (NA1), full length, on …. As to the kind of experiment: FACS on FlpinCHO cells. As to the method: as §2, §4
For assay [8], the target named is T5, human CD16b (NA2), full length, on …. Put plainly: FACS on FlpinCHO cells. As to the method: as §2, §4
Assay [9] deals with T2, human CD16a (158V), full length, on …. Put plainly: FACS, biotinylated antibody. As to the method:
as §2, with “The” for “The required cells were scale-up cultured in a T-75 cell culture flask to the logarithmic growth phase. The”
(§5) An antibody to be detected was labeled in advance according to the instructions of a biotin labeling kit (EZ-Link™ NHS-PEG4 Biotinylation Kit, purchased from Thermofisher Scientific, catalog number: 21455). […] Detection was performed according to the method of Example 3.1, wherein the biotinylated antibody was detected with fluorescein APC-labeled Streptavidin (High Concentration) (purchased from Biolegend, catalog number: 405243).
In general terms: Flow cytometry measures light scatter and fluorescence of single cells or particles in a stream.

Assay [10] deals with T3, human CD16a (158F), full length, on …. Put plainly: FACS, biotinylated antibody. As to the method:
as §2, with “The” for “The required cells were scale-up cultured in a T-75 cell culture flask to the logarithmic growth phase. The”
as §5

For assay [11], the target named is T2, human CD16a (158V), full length, on …. Put plainly: FACS on FlpinCHO cells. As to the method:
as §2
The source holds these as a separate data set.

The target of assay [12] is T3, human CD16a (158F), full length, on …. Put plainly: FACS on FlpinCHO cells. As to the method: as §2
The source holds these as a separate data set.

For assay [13], the target named is T6, Human CD16a (158V)-his (human).
T6 construct: entry holds ECD, AVI tag, linker and His tag
T6 sequence (chain, as listed by the source limits assumed): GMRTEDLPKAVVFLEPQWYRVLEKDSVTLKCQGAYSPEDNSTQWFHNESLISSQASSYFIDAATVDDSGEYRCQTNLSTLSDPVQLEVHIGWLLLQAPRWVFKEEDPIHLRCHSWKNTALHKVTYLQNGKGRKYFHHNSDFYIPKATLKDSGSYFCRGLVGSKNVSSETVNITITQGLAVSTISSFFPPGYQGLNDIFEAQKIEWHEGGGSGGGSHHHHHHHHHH
Put plainly: SPR (Biacore), antibody captured on Protein A. As to the method:
as §1

The target of assay [14] is T2, human CD16a (158V), full length, on …. As to the kind of experiment: FACS, biotinylated antibody, +10 mg/mL human immunoglobulin. As to the method:
as §2, with “The” for “The required cells were scale-up cultured in a T-75 cell culture flask to the logarithmic growth phase. The”
as §5

For assay [15], the target named is T3, human CD16a (158F), full length, on …. Described as above. As to the method: as §2, with “The” for “The required cells were scale-up cultured in a T-75 cell culture flask to the logarithmic growth phase. The”
as §5

The target in assay [16] is T2, human CD16a (158V), full length, on …. As to the kind of experiment: cell-based or functional assay. This is another data set of the same source.
Assay [17] concerns the target T7, CD16 on primary human NK cells (human, UniProt P08637 17-254).
T7 construct: whole, on cells; also called resting NK cells
Put plainly: FACS on human NK cells. As to the method: as §2
The binding of an antibody to be detected to freshly prepared human NK cells (Milestone Biotechnologies, catalog number: PB56-N-Custom) was detected according to the method of Example 3.1.

T7 sequence (P08637 17-254): as the sequence (P08637 17-254 F176V limits assumed) above, with V160F counted along it

B1: VHH06-03 humanized VHH-Fc antibody (Fc fusion)
chain: EVQLVESGGGVVQPGGSLRLSCAASGSTWTTYAVRWYRQAPGKQREWVAFISVDGSTNYADSVKGRFTISRDNSKNTVYLQMNSLRAEDTADYICRVGGQYWGQGTMVTVSSEPKSSDKTHTCPPCPAPEEFGGPSVFLFPPKPKDTLMISRTPEVTCVVVAVSHEDPEVKFNWYVDGVEVHNAKTKPREEQYNSTYRVVSVLTVLHQDWLNGKEYKCKVSNKALPAPIEKTISKAKGQPREPQVYTLPPSREEMTKNQVSLTCLVKGFYPSDIAVEWESNGQPENNYKTTPPVLDSDGSFFLYSKLTVDKSRWQQGNVFSCSVMHEALHNHYTQKSLSLSPGK
In assay [1], B1 yielded a Kd of 28700 pM, a koff of 0.00129 s⁻¹ and a kon of 44800 M⁻¹ s⁻¹. In assay [2], the “EC50, activation activity for Jurkat cell” value was 20 pM and the Maximum fluorescence value came out at 171000. Also, in assay [3], the EC50 worked out at 490 pM and the “Maximum mean fluorescence intensity” value worked out at 8390. For the same molecule, in assay [4], the EC50 is 470 pM and the “Maximum mean fluorescence intensity” value is 9140. In assay [5], the EC50 was determined as 350 pM and the “Maximum mean fluorescence intensity” value was found to be 56900. Also, in assay [6], the “Maximum mean fluorescence intensity” value turned out to be 174 and the binding result is “no binding (tested: 100 nM)”.

B2: VHH15 VHH-Fc antibody (Fc fusion)
chain: EVQLVESGGGLVQAGGSLRLSCVASTSTLTTYAVRWYRQAPGKQREWVAFISVDGNTNYPDSVKGRFIVSRDNAKNTVYLQMNSLKPEDTADYICRAGGQYWGQGTQVTVSSEPKSSDKTHTCPPCPAPEFEGGPSVFLFPPKPKDTLMISRTPEVTCVVVAVSHEDPEVKFNWYVDGVEVHNAKTKPREEQYNSTYRVVSVLTVLHQDWLNGKEYKCKVSNKALPAPIEKTISKAKGQPREPQVYTLPPSREEMTKNQVSLTCLVKGFYPSDIAVEWESNGQPENNYKTTPPVLDSDGSFFLYSKLTVDKSRWQQGNVFSCSVMHEALHNHYTQKSLSLSPGK
For B2, the EC50 was 440 pM in assay [7]; 490 pM in assay [9]; 400 pM in [10]; 690 pM in [11]; 440 pM in assay [12]; 1410 pM in assay [14]. In addition, the EC50 in [15] came out at 1410 pM; in [17], 740 pM. Besides, the “Maximum mean fluorescence intensity” value amounted to 52100 in assay [7]; 178 in [8]; 7260 in assay [9]; 5240 in [10]; 6490 in assay [11]; 5600 in [12]. Further, the “Maximum mean fluorescence intensity” value in assay [14] stood at 9030; in assay [15], 6570; in [17] it was 2400. In addition, the binding result in assay [8] is reported as “no binding (tested: 100 nM)”. Further, the Kd in assay [1] was 42800 pM; in [13], 14100 pM. Also, the koff in [1] was 0.00273 s⁻¹; in [13], 0.0016 s⁻¹. Moreover, the kon was 63800 M⁻¹ s⁻¹ in assay [1] and 114000 M⁻¹ s⁻¹ in assay [13]. In assay [16], the “EC50, activation activity for Jurkat cell” value was determined as 20 pM. This molecule registered a Maximum fluorescence value in assay [16] of 167000.
